Laboratory results taken from US20250276077A1, “EPHA2 ANTIBODIES” (Immunome, Inc., priority 2022, published 2025).

Key:
[1] = molecular target: Human EphA2 (ephrin receptor A2), native, in human tumor tissue (human) (UniProt P29317); assay: IF tumor tissue PANC, 10 ug/ml
[2] = molecular target: C-terminally His-tagged hEphA2-FN2 (Thr437-Asn534+His tag) (human) (UniProt P29317); assay: SPR Biacore T200, 25 C; mIgG2a as immobilized ligand, hEphA2-FN2-His analyte
[3] = molecular target: Human EphA2 (ephrin receptor A2), native, in human tumor tissue (human) (UniProt P29317); assay: IF tumor tissue URO, 0.3 ug/ml
[4] = molecular target: Human EphA2 (ephrin receptor A2), native, in human tumor tissue (human) (UniProt P29317); assay: IF tumor tissue NSCLC-SQ, 10 ug/ml
[5] = molecular target: Human EphA2 (ephrin receptor A2), native, in human tumor tissue (human) (UniProt P29317); assay: IF tumor tissue MELA, 1 ug/ml
[6] = molecular target: Human EphA2 (ephrin receptor A2), native, in human tumor tissue (human) (UniProt P29317); assay: IF tumor tissue RCC-papillary, 10 ug/ml
[7] = molecular target: Human EphA2 (ephrin receptor A2), native, in human tumor tissue (human) (UniProt P29317); assay: IF tumor tissue NSCLC-SQ, 1 ug/ml
[8] = molecular target: Human EphA2 (ephrin receptor A2), native, in human tumor tissue (human) (UniProt P29317); assay: IF tumor tissue Uterine, 10 ug/ml
[9] = molecular target: Human EphA2 (ephrin receptor A2), native, in human tumor tissue (human) (UniProt P29317); assay: IF tumor tissue NSCLC-Adeno, 30 ug/ml
[10] = molecular target: Human EphA2 (ephrin receptor A2), native, in human tumor tissue (human) (UniProt P29317); assay: IF tumor tissue RCC-papillary, 30 ug/ml
[11] = molecular target: Human EphA2 (ephrin receptor A2), native, in human tumor tissue (human) (UniProt P29317); assay: IF tumor tissue URO, 30 ug/ml
[12] = molecular target: Human EphA2 (ephrin receptor A2), native, in human tumor tissue (human) (UniProt P29317); assay: IF tumor tissue ESO, 10 ug/ml
[13] = molecular target: Human EphA2 (ephrin receptor A2), native, in human tumor tissue (human) (UniProt P29317); assay: IF tumor tissue STS, 1 ug/ml
[14] = molecular target: Human EphA2 (ephrin receptor A2), native, in human tumor tissue (human) (UniProt P29317); assay: IF tumor tissue ESO, 0.1 ug/ml
[15] = molecular target: Human EphA2 (ephrin receptor A2), native, in human tumor tissue (human) (UniProt P29317); assay: IF tumor tissue ESO, 1 ug/ml
[16] = molecular target: Human EphA2 (ephrin receptor A2), native, in human tumor tissue (human) (UniProt P29317); assay: IF tumor tissue NSCLC-SQ, 0.3 ug/ml
[17] = molecular target: Human EphA2 (ephrin receptor A2), native, in human tumor tissue (human) (UniProt P29317); assay: IF tumor tissue URO, 3 ug/ml
[18] = molecular target: Human EphA2 (ephrin receptor A2), native, in human tumor tissue (human) (UniProt P29317); assay: IF tumor tissue ESO, 3 ug/ml
[19] = molecular target: Human EphA2 (ephrin receptor A2), native, in human tumor tissue (human) (UniProt P29317); assay: IF tumor tissue PANC, 3 ug/ml
[20] = molecular target: Human EphA2 (ephrin receptor A2), native, in human tumor tissue (human) (UniProt P29317); assay: IF tumor tissue STS, 0.3 ug/ml
[21] = molecular target: Human EphA2 (ephrin receptor A2), native, in human tumor tissue (human) (UniProt P29317); assay: IF tumor tissue NSCLC-SQ, 3 ug/ml
[22] = molecular target: Human EphA2 (ephrin receptor A2), native, in human tumor tissue (human) (UniProt P29317); assay: IF tumor tissue NSCLC-Adeno, 10 ug/ml
[23] = molecular target: Human EphA2 (ephrin receptor A2), native, in human tumor tissue (human) (UniProt P29317); assay: IF tumor tissue Uterine, 1 ug/ml
[24] = molecular target: Human EphA2 (ephrin receptor A2), native, in human tumor tissue (human) (UniProt P29317); assay: IF tumor tissue STS, 10 ug/ml
[25] = molecular target: Human EphA2 (ephrin receptor A2), native, in human tumor tissue (human) (UniProt P29317); assay: IF tumor tissue URO, 1 ug/ml
[26] = molecular target: Human EphA2 (ephrin receptor A2), native, in human tumor tissue (human) (UniProt P29317); assay: IF tumor tissue URO, 0.1 ug/ml

Human EphA2 (ephrin receptor A2), native, in human tumor tissue (human), sequence (P29317 25-976): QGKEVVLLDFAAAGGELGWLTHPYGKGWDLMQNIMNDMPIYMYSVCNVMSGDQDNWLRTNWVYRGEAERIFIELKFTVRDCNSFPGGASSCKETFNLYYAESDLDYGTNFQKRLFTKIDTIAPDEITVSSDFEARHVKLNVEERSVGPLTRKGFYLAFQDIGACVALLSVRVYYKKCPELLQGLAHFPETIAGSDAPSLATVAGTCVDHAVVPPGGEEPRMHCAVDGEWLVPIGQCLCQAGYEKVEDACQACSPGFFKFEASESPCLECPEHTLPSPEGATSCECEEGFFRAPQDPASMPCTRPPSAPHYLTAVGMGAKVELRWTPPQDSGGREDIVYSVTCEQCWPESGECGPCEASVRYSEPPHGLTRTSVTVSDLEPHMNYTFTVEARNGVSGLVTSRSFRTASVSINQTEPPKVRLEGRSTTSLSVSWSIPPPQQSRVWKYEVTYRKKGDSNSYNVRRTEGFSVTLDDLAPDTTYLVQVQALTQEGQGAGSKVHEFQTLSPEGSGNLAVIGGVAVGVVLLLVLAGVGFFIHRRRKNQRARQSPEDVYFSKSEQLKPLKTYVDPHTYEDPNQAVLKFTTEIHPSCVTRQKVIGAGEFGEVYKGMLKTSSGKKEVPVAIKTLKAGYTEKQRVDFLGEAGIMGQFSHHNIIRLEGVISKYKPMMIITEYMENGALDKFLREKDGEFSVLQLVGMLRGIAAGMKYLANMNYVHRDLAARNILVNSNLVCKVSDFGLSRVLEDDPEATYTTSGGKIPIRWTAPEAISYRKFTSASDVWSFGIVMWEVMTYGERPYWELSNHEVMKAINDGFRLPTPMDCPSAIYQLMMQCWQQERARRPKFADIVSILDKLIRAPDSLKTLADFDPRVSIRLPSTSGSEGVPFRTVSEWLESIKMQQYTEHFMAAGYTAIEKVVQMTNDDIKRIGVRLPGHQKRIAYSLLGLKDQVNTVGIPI
C-terminally His-tagged hEphA2-FN2 (Thr437-Asn534+His tag) (human), sequence (P29317 437-534 limits assumed): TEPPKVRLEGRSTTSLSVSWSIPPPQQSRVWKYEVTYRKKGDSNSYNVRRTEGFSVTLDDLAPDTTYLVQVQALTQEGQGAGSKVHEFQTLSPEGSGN

tissue reactivity score [1]: 2
Kd [2]: 4.3 nM
koff [2]: 0.0021 s⁻¹
kon [2]: 490000 M⁻¹ s⁻¹
tissue reactivity score [3]: 2
tissue reactivity score [4]: 1
tissue reactivity score [5]: 2
tissue reactivity score [6]: 2
tissue reactivity score [7]: 1
tissue reactivity score [8]: 2
tissue reactivity score [9]: 1
tissue reactivity score [10]: 2
tissue reactivity score [11]: 2
tissue reactivity score [12]: 1
tissue reactivity score [13]: 1
tissue reactivity score [14]: 1
tissue reactivity score [15]: 1
tissue reactivity score [16]: 1
tissue reactivity score [17]: 2
tissue reactivity score [18]: 1
tissue reactivity score [19]: 2
tissue reactivity score [20]: 1
tissue reactivity score [21]: 1
tissue reactivity score [22]: 1
tissue reactivity score [23]: 2
tissue reactivity score [24]: 1
tissue reactivity score [25]: 2
tissue reactivity score [26]: 2
Substance: AB-010018 (mouse monoclonal antibody precursor of DS-8895a; mouse IgG2a format)
